Results reported in patent publication US6518063 (University of Texas, dated 1998).

What was measured:
[1] = molecular target: T1, histidine-tagged recombinant Osf2/Cbfa1 polypeptide (His-Osf2/Cbfa1) (mouse, UniProt Q08775 80-607); experiment: EMSA with labeled OSE2 oligonucleotide, with or without Cbfβ
T1 construct: Bacterially expressed, enriched on Ni resin; also called His-tagged Osf2/Cbfa1 polypeptide
Description: (§1) DNA-binding assays were performed with 5 fmol of ^32P-labeled double-stranded OSE2 oligonucleotides, in a buffer containing 20 mM Tris-HCl, pH 8.0, 10 mM NaCl, 3 mM EGTA, 0.05% NP-40, 5 mM DTT, and 2 μg of poly (dI.dC).poly (dI.dC), with equivalent amounts of wild type or mutant proteins. […] Typically, 100 ng of fusion protein bound to glutathione-agarose beads was used for each assay, while the amount of labeled protein in the assay was determined using fluorography.

[2] = molecular target: T2, ΔN19.1.1 deletion mutant of Osf2 (His-tagged) (mouse, UniProt Q08775 99-607); experiment: as above
T2 construct: counted with Met69 of the cDNA as residue 1
T2 sequence (Q08775 other isoform, or with tags, fused parts or gaps mutant): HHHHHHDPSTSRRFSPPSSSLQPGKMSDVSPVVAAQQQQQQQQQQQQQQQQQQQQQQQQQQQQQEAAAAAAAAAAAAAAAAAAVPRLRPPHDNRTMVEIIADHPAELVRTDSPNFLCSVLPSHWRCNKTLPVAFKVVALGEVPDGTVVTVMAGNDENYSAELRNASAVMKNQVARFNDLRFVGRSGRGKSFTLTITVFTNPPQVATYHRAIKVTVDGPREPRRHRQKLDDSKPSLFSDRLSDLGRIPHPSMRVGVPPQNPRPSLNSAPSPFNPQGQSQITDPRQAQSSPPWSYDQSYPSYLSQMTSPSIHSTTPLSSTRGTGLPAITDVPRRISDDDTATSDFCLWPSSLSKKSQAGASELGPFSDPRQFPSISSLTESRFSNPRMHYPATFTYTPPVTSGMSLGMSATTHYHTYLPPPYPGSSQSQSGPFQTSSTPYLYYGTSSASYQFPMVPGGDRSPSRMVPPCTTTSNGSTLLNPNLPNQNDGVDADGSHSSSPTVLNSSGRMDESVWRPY
Description: as §1

T1 sequence (Q08775 other isoform, or with tags, fused parts or gaps): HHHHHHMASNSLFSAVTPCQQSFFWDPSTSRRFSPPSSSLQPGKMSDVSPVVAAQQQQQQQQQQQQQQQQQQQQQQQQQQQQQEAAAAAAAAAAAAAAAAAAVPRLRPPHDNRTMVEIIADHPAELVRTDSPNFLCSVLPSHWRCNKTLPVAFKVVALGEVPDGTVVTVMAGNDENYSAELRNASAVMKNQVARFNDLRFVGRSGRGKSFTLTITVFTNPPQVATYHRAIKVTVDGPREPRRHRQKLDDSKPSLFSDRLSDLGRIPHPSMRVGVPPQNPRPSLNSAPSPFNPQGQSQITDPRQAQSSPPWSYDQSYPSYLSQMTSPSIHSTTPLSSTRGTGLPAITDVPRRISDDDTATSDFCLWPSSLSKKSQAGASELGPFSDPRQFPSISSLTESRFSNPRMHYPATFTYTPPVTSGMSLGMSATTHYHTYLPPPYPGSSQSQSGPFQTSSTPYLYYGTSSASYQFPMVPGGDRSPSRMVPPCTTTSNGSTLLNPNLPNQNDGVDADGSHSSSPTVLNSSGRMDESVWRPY

binding result [1]: no binding
binding result [2]: no binding
B1: histidine-tagged Cbfβ (other)
chain: HHHHHHMPRVVPDQRSKFENEEFFRKLSRECEIKYTGFRDRPHEERQTRFQNACRDGRSEIAFVATGTNLSLQFFPASWQGEQRQTPSREYVDLEREAGKVYLKAPMILNGVCVIWKGWIDLHRLDGMGCLEFDEERAQQEDALAQQAFEEARRRTREFEDRDRSHREEMEARRQQDPSPGSNLGGGDDLKLR
notes: Recombinant Cbfβ added in EMSA; also called Cbf]3
